± gives the standard deviation of the averaged measurements.
Tested on: ATP
Experiment: switch fluorescence ratio, 500 uM ATP over buffer (Cy3 cluster intensity, sum of 5 cycles each) (fold (ratio)); higher = stronger signal-on switching upon ATP binding; sequences stand for … in TCGTCGGCAGCGTCAGATGTGTATAAGAGACAGTTTTTTTTTTTTTTTTTTTTTTTTT…TC
Conditions: aptamer strand: ATP DNA aptamer (quencher-CACCTGGGGGAGTATTGCGGAGGAAGG + anchor), 100 nM annealed; ATP concentration: 500 uM
Procedure, shortened: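 Cy3-labelled switching-strand clusters on a modified Illumina MiSeq flow-cell were annealed to 100 nM quencher-labelled ATP aptamer and imaged first in selection buffer, then after 15 min with 500 uM ATP at 22 °C. NaOH stripping and re-annealing separated each of five buffer/ATP cycles, and clusters outside 100-1000 RFU were excluded. The fluorescence ratio sums target-cycle Cy3 intensity over buffer-cycle Cy3 intensity per cluster and averages it per switch-domain sequence.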
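Also: ATP exposure 15 min at 22 °C before imaging.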

Sequence	switch fluorescence ratio
CATAGTCCTC	0.964 ± 0.041
CATAGTTACG	0.994 ± 0.047
CATAGTTCGT	0.988 ± 0.016
CATATAAGTA	0.9809 ± 0.0025
CATATGGGGT	1 ± 0.038
CATATGTCTG	0.994 ± 0.015
CATATTGGGG	0.963 ± 0.022
CATATTTAGG	0.949 ± 0.028
CATCAAGGTA	1.04 ± 0.025
CATCAGGGCT	1.06 ± 0.051
CATCATGTCT	1.01 ± 0.03
CATCCCTCAA	1.86 ± 0.72
CATCCGTCCG	1.353 ± 0.0037
CATCGAGTTC	1.05 ± 0.025
CATCGCATTT	2.32 ± 0.91
CATCGGGGTT	1.01 ± 0.002
CATCGTTGGT	0.999 ± 0.0029
CATCTAGCAC	2.63 ± 0.42
CATCTGCGTT	1.58 ± 0.11
CATGAATCTA	0.98017 ± 0.00042
CATGAATTCA	1.04 ± 0.033
CATGAATTGT	0.974 ± 0.019
CATGAGTTGT	1 ± 0.025
CATGATTCA	0.998 ± 0.041
CATGATTTAT	1 ± 0.054

Sequence	switch fluorescence ratio
CATGCATGTT	1.01 ± 0.029
CATGCCAGAA	0.981 ± 0.015
CATGCCTTGT	1.009 ± 0.0059
CATGCGGATG	1.001 ± 0.0056
CATGCGGCCG	0.992 ± 0.02
CATGCTTCAT	0.988 ± 0.017
CATGGAAGGG	0.9699 ± 0.0068
CATGGAATAG	1.07 ± 0.011
CATGGAGAGG	1.02 ± 0.0086
CATGGATTAA	1 ± 0.011
CATGGCAACG	0.993 ± 0.038
CATGGGAAAT	1.008 ± 0.005
CATGGGCAGC	0.997 ± 0.016
CATGGGCCGT	1.02 ± 0.035
CATGGGGCTA	1.02 ± 0.031
CATGGGGTAA	0.99 ± 0.014
CATGGGGTGG	0.9671 ± 0.0014
CATGGGGTGT	1.01 ± 0.013
CATGGGTGGG	0.994 ± 0.028
CATGGTATTT	0.9797 ± 0.0095
CATGGTTTTC	0.962 ± 0.04
CATGTAAGGA	0.985 ± 0.015
CATGTAAGTT	0.986 ± 0.018
CATGTAGCGT	1 ± 0.027
CATGTATAGG	0.987 ± 0.032

Sequence	switch fluorescence ratio
CATGTATGT	1.07 ± 0.03
CATGTCAAGA	1.01 ± 0.036
CATGTGAAGC	1.014 ± 0.0072
CATGTGAAGG	0.966 ± 0.037
CATGTGGACG	1.1 ± 0.02
CATGTTAGGG	1.01 ± 0.033
CATGTTGAGC	0.9959 ± 0.0081
CATGTTTTGT	1.02 ± 0.017
CATGTTTTTC	0.982 ± 0.033
CATTAAATTT	1.02 ± 0.011
CATTAAGGAG	1.06 ± 0.092
CATTACAGCC	1.09 ± 0.028
CATTACTTTT	1.01 ± 0.014
CATTAGCGCA	1.047 ± 0.0084
CATTAGTGGG	0.988 ± 0.011
CATTATGTGA	0.987 ± 0.051
CATTATTATG	1.03 ± 0.036
CATTATTTCA	0.997 ± 0.04
CATTCGTCGG	1.044 ± 0.0031
CATTGAATAC	1.36 ± 0.061
CATTGAGTGC	1.034 ± 0.0017
CATTGATATG	0.9912 ± 0.0091
CATTGCGAGG	1.02 ± 0.039
CATTGCTTGG	1.039 ± 0.0012
CATTGGAGGA	1.018 ± 0.0011

Sequence	switch fluorescence ratio
CATTGGAGTC	0.998 ± 0.043
CATTGGCGTA	1.02 ± 0.023
CATTGGTGTG	0.985 ± 0.047
CATTGTGGTA	1.014 ± 0.0033
CATTGTTGTT	1.01 ± 0.0098
CATTGTTTGA	1.03 ± 0.021
CATTTACACT	1.05 ± 0.059
CATTTAGGAT	0.985 ± 0.018
CATTTAGGCT	0.9997 ± 0.0058
CATTTCACGC	1.0996 ± 0.00041
CATTTCGAAC	1.02 ± 0.027
CATTTGGCGG	1 ± 0.013
CATTTGGGCC	0.999 ± 0.017
CATTTGTCCG	1.01 ± 0.071
CATTTGTTCT	1 ± 0.049
CATTTTATTT	0.996 ± 0.032
CATTTTGATG	0.966 ± 0.011
CATTTTGTAT	0.998 ± 0.013
CATTTTTGGC	1.03 ± 0.027
CATTTTTTGG	0.998 ± 0.019
CATTTTTTGT	1.027 ± 0.0052
CATTTTTTTG	1 ± 0.017
CCAAAGGGAT	1.28 ± 0.38
CCAAAGGGGA	1.15 ± 0.27
CCAAAGGTTT	1.13 ± 0.22

Sequence	switch fluorescence ratio
CCAAATGTCT	1.016 ± 0.0049
CCAAATTTAA	1.03 ± 0.01
CCAACGGGGA	1.1 ± 0.085
CCAACGGTGC	2.24 ± 0.095
CCAACTTGGA	0.9849 ± 0.003
CCAAGCGCCC	1.63 ± 0.23
CCAAGCGCCG	1.12 ± 0.13
CCAAGGACAC	1.1498 ± 0.001
CCAAGGAGGG	0.999 ± 0.017
CCAAGGAGTC	0.992 ± 0.024
CCAAGGATAA	1.047 ± 7.2e-05
CCAAGGCTTA	1.06 ± 0.063
CCAAGGGTTT	0.993 ± 0.06
CCAATAAATT	0.974 ± 0.018
CCAATAGACG	1.01 ± 0.03
CCAATCCAGT	1.01 ± 0.013
CCAATGGGGG	0.982 ± 0.04
CCAATTGTGG	0.9977 ± 0.0056
CCAATTTTAA	0.985 ± 0.029
CCACAGGGTG	4.53 ± 1.5
CCACAGTAAT	4.75 ± 0.34
CCACCGGGCC	1.36 ± 0.076
CCACCTTACG	1.54 ± 0.077
CCACGCGGCA	1.19 ± 0.091
CCACGGACAA	1.645 ± 0.0082

Sequence	switch fluorescence ratio
CCACGGGTTA	1.045 ± 0.005
CCACGGTTAG	0.981 ± 0.023
CCACGTTGAA	1.05 ± 0.033
CCACTAGTCG	1.02 ± 0.016
CCACTGTGGT	0.978 ± 0.013
CCAGACACAG	0.9849 ± 0.002
CCAGACTTTT	0.999 ± 0.043
CCAGAGACCG	1.04 ± 0.012
CCAGAGAGCC	1.04 ± 0.028
CCAGAGGGAT	0.992 ± 0.024
CCAGATGGCA	1.02 ± 0.082
CCAGATTTTA	0.992 ± 0.015
CCAGCAGGGA	1.37 ± 0.49
CCAGCCAATA	3.36 ± 0.12
CCAGCGGGGC	1.05 ± 0.019
CCAGGAACTC	1.02 ± 0.025
CCAGGACTGC	0.972 ± 0.036
CCAGGGCAGC	1.06 ± 0.079
CCAGGGCGTG	1.02 ± 0.069
CCAGGGGGAA	1.09 ± 0.12
CCAGGGGGGG	1.24 ± 0.32
CCAGGGGGTT	1.51 ± 0.59
CCAGGTAGG	1.24 ± 0.068
CCAGGTTTCA	1.03 ± 0.046
CCAGGTTTGT	1.17 ± 0.016

Sequence	switch fluorescence ratio
CCAGGTTTTG	1.08 ± 0.031
CCAGTAAAAT	1.01 ± 0.019
CCAGTAAATT	0.993 ± 0.046
CCAGTAATGT	1.04 ± 0.041
CCAGTACTGA	1.021 ± 0.0094
CCAGTCATTT	1.03 ± 0.027
CCAGTGGGGC	1.01 ± 0.072
CCAGTGTGTG	1.09 ± 0.062
CCAGTTATGG	0.999 ± 0.068
CCAGTTTGCA	1.02 ± 0.017
CCATAAATAG	1.169 ± 0.0077
CCATACGGGG	0.998 ± 0.023
CCATATAGAG	1.02 ± 0.027
CCATGCGATG	1.21 ± 0.1
CCATGGTTGT	1.011 ± 0.005
CCATGGTTTT	1.0024 ± 0.00092
CCATGTATAA	1.02 ± 0.016
CCATGTCAGC	1.03 ± 0.021
CCATGTGAAG	0.992 ± 0.027
CCATGTGTAG	1 ± 0.017
CCATGTGTCG	1.05 ± 0.064
CCATTAATAG	1.04 ± 0.057
CCATTAGTTT	0.987 ± 0.018
CCATTCTTGT	1.04 ± 0.022
CCATTTCTGA	1.03 ± 0.015

Sequence	switch fluorescence ratio
CCATTTGTGT	0.976 ± 0.023
CCCAAAAACG	1.25 ± 0.29
CCCAATTCCT	1.14 ± 0.031
CCCAATTTCT	1.05 ± 0.045
CCCACCGGGC	1.05 ± 0.022
CCCACCGTTG	1.17 ± 0.03
CCCAGCACGT	1.37 ± 0.04
CCCAGGGT	1.54 ± 0.67
CCCATTATGC	1.13 ± 0.057
CCCATTGTCG	1.01 ± 0.064
CCCATTTTGC	1.032 ± 0.0067
CCCCAGAGCT	1.66 ± 0.066
CCCCAGGGGT	2.44 ± 2
CCCCGGCTGG	1.125 ± 0.005
CCCCGGGGGG	1.09 ± 0.15
CCCCTGTTTT	1.01 ± 0.022
CCCGAAGGGC	1.01 ± 0.081
CCCGACTTTA	1.04 ± 0.014
CCCGAGTATG	1.034 ± 0.0099
CCCGATGTTA	0.9973 ± 0.0041
CCCGATTTTG	1.023 ± 0.0069
CCCGGACGGT	1 ± 0.025
CCCGGATTTG	1.01 ± 0.055
CCCGGCTGTT	1.02 ± 0.067
CCCGGGAAAT	1.04 ± 0.059

From the supplement of paper PMC10126150
